The text below walks through data of IntAct's records for PubMed 35152348.

Sequences and labels used below:
B1: Tyrosine-protein phosphatase non-receptor type 22 (Homo sapiens), Q9Y2R2-1 (parent)
chain: MDQREILQKFLDEAQSKKITKEEFANEFLKLKRQSTKYKADKTYPTTVAEKPKNIKKNRYKDILPYDYSRVELSLITSDEDSSYINANFIKGVYGPKAYIATQGPLSTTLLDFWRMIWEYSVLIIVMACMEYEMGKKKCERYWAEPGEMQLEFGPFSVSCEAEKRKSDYIIRTLKVKFNSETRTIYQFHYKNWPDHDVPSSIDPILELIWDVRCYQEDDSVPICIHCSAGCGRTGVICAIDYTWMLLKDGIIPENFSVFSLIREMRTQRPSLVQTQEQYELVYNAVLELFKRQMDVIRDKHSGTESQAKHCIPEKNHTLQADSYSPNLPKSTTKAAKMMNQQRTKMEIKESSSFDFRTSEISAKEELVLHPAKSSTSFDFLELNYSFDKNADTTMKWQTKAFPIVGEPLQKHQSLDLGSLLFEGCSNSKPVNAAGRYFNSKVPITRTKSTPFELIQQRETKEVDSKENFSYLESQPHDSCFVEMQAQKVMHVSSAELNYSLPYDSKHQIRNASNVKHHDSSALGVYSYIPLVENPYFSSWPPSGTSSKMSLDLPEKQDGTVFPSSLLPTSSTSLFSYYNSHDSLSLNSPTNISSLLNQESAVLATAPRIDDEIPPPLPVRTPESFIVVEEAGEFSPNVPKSLSSAVKVKIGTSLEWGGTSEPKKFDDSVILRPSKSVKLRSPKSELHQDRSSPPPPLPERTLESFFLADEDCMQAQSIETYSTSYPDTMENSTSSKQTLKTPGKSFTRSKSLKILRNMKKSICNSCPPNKPAESVQSNNSSSFLNFGFANRFSKPKGPRNPPPTWNI
B2: Proline-serine-threonine phosphatase-interacting protein 1 (Homo sapiens), O43586 (parent)
chain: MMPQLQFKDAFWCRDFTAHTGYEVLLQRLLDGRKMCKDMEELLRQRAQAEERYGKELVQIARKAGGQTEINSLRASFDSLKQQMENVGSSHIQLALTLREELRSLEEFRERQKEQRKKYEAVMDRVQKSKLSLYKKAMESKKTYEQKCRDADDAEQAFERISANGHQKQVEKSQNKARQCKDSATEAERVYRQSIAQLEKVRAEWEQEHRTTCEAFQLQEFDRLTILRNALWVHSNQLSMQCVKDDELYEEVRLTLEGCSIDADIDSFIQAKSTGTEPPAPVPYQNYYDREVTPLTSSPGIQPSCGMIKRFSGLLHGSPKTTSLAASAASTETLTPTPERNEGVYTAIAVQEIQGNPASPAQEYRALYDYTAQNPDELDLSAGDILEVILEGEDGWWTVERNGQRGFVPGSYLEKL
partner: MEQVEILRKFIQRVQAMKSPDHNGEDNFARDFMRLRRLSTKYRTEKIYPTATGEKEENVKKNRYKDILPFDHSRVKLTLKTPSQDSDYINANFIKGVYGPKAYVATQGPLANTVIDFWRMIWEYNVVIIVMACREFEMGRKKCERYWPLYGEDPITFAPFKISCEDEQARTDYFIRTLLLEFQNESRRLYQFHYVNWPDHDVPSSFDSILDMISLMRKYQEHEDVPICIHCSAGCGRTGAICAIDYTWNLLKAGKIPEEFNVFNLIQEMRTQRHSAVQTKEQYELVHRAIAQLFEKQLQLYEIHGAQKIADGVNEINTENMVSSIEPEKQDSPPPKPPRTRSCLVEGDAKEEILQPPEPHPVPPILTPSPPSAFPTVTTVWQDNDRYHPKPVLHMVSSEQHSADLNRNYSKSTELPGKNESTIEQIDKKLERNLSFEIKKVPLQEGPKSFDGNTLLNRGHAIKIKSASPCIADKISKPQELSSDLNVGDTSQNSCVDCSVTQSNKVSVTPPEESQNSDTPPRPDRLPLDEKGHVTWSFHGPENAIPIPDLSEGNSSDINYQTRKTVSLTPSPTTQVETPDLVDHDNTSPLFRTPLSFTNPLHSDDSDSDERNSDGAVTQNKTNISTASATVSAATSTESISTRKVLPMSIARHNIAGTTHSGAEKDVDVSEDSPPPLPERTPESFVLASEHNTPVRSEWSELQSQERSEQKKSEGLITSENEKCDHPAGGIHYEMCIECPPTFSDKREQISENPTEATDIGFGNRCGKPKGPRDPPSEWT
B3: Proline-serine-threonine phosphatase-interacting protein 1 (Homo sapiens), O43586 (parent)
chain: B2 chain
partner: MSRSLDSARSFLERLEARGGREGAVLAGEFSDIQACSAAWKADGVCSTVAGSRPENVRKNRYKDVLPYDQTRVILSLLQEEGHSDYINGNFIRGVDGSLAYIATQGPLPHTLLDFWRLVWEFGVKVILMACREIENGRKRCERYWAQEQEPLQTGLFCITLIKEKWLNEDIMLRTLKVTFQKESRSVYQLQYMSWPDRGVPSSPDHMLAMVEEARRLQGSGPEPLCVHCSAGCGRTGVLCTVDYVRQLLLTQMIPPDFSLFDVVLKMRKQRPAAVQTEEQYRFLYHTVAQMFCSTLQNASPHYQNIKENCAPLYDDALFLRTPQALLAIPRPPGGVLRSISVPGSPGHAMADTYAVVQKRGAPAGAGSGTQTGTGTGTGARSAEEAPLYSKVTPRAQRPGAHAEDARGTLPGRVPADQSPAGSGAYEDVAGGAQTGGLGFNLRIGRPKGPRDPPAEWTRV
B4: Proline-serine-threonine phosphatase-interacting protein 1 (Homo sapiens), O43586 (parent)
chain: B2 chain
partner: B1 chain

One assay covers variants of B1. The note with it: with ppip1_human PSTPIP1, O43586.
Regarding R799A, the “effect of a mutation on the interaction” value was “decreasing interaction strength”.

Take W805A: the “effect of a mutation on the interaction” value is reported as “decreasing interaction strength”.

Another assay covers variants of B2. The settings on record: with ptn12_human PTPN12, Q05209.
Consider Q219H, for which the “effect of a mutation on the interaction” value was “with no effect”.

With G258A, the “effect of a mutation on the interaction” value was “with no effect”.

For A230T, the “effect of a mutation on the interaction” value was “with no effect”.

As for R228C, the “effect of a mutation on the interaction” value is on record as “disrupting interaction strength”.

As for D266N, the “effect of a mutation on the interaction” value is given as “with no effect”.

For T274M, the “effect of a mutation on the interaction” value is given as “with no effect”.

In the case of E257G, the “effect of a mutation on the interaction” value is reported as “with no effect”.

For the variant E257K, the “effect of a mutation on the interaction” value is on record as “disrupting interaction strength”.

E250K: the “effect of a mutation on the interaction” value is “disrupting interaction strength”.

For the variant E250Q, the “effect of a mutation on the interaction” value is “decreasing interaction strength”.

Take W232A: the “effect of a mutation on the interaction” value is on record as “disrupting interaction strength”.

On to D246N, for which the “effect of a mutation on the interaction” value is “with no effect”.

A further assay covers variants of B3. The settings on record: with ptn18_human PTPN18, Q99952.
In the case of A230T, the “effect of a mutation on the interaction” value is on record as “with no effect”.

With D266N, the “effect of a mutation on the interaction” value is listed as “with no effect”.

In the case of G258A, the “effect of a mutation on the interaction” value was “with no effect”.

Regarding T274M, the “effect of a mutation on the interaction” value is given as “with no effect”.

With E250Q, the “effect of a mutation on the interaction” value is “decreasing interaction strength”.

In the case of E250K, the “effect of a mutation on the interaction” value is “disrupting interaction strength”.

With R228C, the “effect of a mutation on the interaction” value is reported as “disrupting interaction strength”.

For the variant D246N, the “effect of a mutation on the interaction” value was “decreasing interaction strength”.

Regarding E257K, the “effect of a mutation on the interaction” value is recorded as “disrupting interaction strength”.

Consider E257G, for which the “effect of a mutation on the interaction” value was “with no effect”.

With Q219H, the “effect of a mutation on the interaction” value is reported as “with no effect”.

Turning to W232A, the “effect of a mutation on the interaction” value was “disrupting interaction strength”.

The variants in a further assay derive from B4. The note with it: with PTPN22, Q9Y2R2-1.
Consider E277D, for which the “effect of a mutation on the interaction” value is “with no effect”.

On to G258A, for which the “effect of a mutation on the interaction” value is listed as “with no effect”.

D289H: the “effect of a mutation on the interaction” value was “with no effect”.

Regarding D266N, the “effect of a mutation on the interaction” value is on record as “with no effect”.

As to T68M, the “effect of a mutation on the interaction” value is reported as “with no effect”.

As for R405C, the “effect of a mutation on the interaction” value was “with no effect”.

In the case of E250K, the “effect of a mutation on the interaction” value is “disrupting interaction strength”.

Consider E250Q, for which the “effect of a mutation on the interaction” value is recorded as “decreasing interaction strength”.

With Y345C, the “effect of a mutation on the interaction” value was “with no effect”.

As to T274M, the “effect of a mutation on the interaction” value is “with no effect”.

Regarding A230T, the “effect of a mutation on the interaction” value was “with no effect”.

Take V122I: the “effect of a mutation on the interaction” value is “with no effect”.

Consider E257K, for which the “effect of a mutation on the interaction” value is reported as “decreasing interaction strength”.

As for E257G, the “effect of a mutation on the interaction” value was “with no effect”.

Regarding D246N, the “effect of a mutation on the interaction” value is “decreasing interaction strength”.

As for G403E, the “effect of a mutation on the interaction” value is on record as “with no effect”.

For G403R, the “effect of a mutation on the interaction” value is on record as “with no effect”.

Regarding D384G, the “effect of a mutation on the interaction” value is “with no effect”.

In the case of V344I, the “effect of a mutation on the interaction” value is listed as “with no effect”.

Take W232A: the “effect of a mutation on the interaction” value is on record as “disrupting interaction strength”.

Regarding R228C, the “effect of a mutation on the interaction” value was “disrupting interaction strength”.

Regarding R52Q, the “effect of a mutation on the interaction” value is recorded as “with no effect”.

With Q219H, the “effect of a mutation on the interaction” value was “with no effect”.

A further assay covers variants of B4. The note with it: with PTPN22, Q9Y2R2-1. This is another data set of the same source.
For E250K, the “effect of a mutation on the interaction” value is on record as “decreasing interaction strength”.

Consider E257G, for which the “effect of a mutation on the interaction” value is on record as “decreasing interaction strength”.

Consider R228C, for which the “effect of a mutation on the interaction” value was “decreasing interaction strength”.

The variants in another assay derive from B4. The settings on record: with PTPN22, Q9Y2R2-1. This is another data set of the same source.
W232A: the “effect of a mutation on the interaction” value was “decreasing interaction strength”.
